Results on 1 molecule are retold here after US20020165128A1, “Compositions and methods for proteolytically inactivating infectious agents using lactoferrin and related molecules” (priority 1998, published 2002).

Test [1] concerns the target T1, H. influenzae Hap adhesin (Haemophilus influenzae, UniProt P45387).
T1 construct: expressed in transfected cells; host or cells: H. influenzae strain DB117 carrying pJS106
T1 sequence (P45387 26-1394): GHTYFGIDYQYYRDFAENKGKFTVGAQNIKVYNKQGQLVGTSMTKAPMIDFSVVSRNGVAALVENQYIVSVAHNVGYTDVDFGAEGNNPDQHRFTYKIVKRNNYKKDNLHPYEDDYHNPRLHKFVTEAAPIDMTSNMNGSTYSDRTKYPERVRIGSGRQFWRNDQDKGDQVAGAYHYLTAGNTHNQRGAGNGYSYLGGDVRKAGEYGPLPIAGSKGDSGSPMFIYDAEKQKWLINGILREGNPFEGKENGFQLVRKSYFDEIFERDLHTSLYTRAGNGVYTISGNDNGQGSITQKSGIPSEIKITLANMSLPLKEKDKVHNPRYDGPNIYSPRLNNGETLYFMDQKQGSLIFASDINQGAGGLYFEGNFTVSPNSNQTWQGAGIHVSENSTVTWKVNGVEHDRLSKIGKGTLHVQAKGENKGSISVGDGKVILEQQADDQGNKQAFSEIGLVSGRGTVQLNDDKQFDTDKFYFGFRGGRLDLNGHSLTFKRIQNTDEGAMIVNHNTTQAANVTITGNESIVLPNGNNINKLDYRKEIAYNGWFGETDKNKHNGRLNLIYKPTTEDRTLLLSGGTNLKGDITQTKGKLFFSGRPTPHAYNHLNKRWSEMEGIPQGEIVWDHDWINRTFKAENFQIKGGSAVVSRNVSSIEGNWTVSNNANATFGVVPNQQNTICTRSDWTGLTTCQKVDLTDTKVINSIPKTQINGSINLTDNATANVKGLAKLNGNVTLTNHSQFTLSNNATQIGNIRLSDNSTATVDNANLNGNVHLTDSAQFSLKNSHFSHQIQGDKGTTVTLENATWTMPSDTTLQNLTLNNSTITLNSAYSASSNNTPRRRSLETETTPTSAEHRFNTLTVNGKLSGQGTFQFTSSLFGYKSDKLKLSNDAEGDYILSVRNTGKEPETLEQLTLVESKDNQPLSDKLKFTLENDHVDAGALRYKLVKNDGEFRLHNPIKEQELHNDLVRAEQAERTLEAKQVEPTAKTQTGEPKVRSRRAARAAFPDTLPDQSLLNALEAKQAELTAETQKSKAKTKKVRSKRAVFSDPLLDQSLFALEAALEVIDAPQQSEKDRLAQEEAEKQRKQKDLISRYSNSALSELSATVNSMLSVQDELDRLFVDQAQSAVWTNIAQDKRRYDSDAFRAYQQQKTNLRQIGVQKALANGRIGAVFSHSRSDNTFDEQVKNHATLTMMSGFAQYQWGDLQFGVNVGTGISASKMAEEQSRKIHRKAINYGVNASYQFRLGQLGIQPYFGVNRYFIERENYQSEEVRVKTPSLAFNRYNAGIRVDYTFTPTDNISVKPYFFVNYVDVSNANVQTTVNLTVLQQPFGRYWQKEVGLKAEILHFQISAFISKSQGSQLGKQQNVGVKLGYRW
It is filed as cell-based. Particulars: DB117 expressing wild-type Hap, 13 μM.

Test [2] addresses T2, H. influenzae Hap adhesin (Haemophilus influenzae, UniProt P45387, S243A).
T2 construct: expressed in transfected cells; host or cells: H. influenzae strain DB117 carrying pJS106
T2 sequence (P45387 26-1394 S243A): T1 sequence (P45387 26-1394) with S218A
The format is cell-based. Particulars: DB117 expressing HapS243A, 13 μM, whole cells.

Test [3] deals with H. influenzae Hap adhesin. The format is cell-based, Haemophilus influenzae. The following applies: lowest concentration (87 nM), treatment of cells for 1 hour.
Test [4] addresses T3, 20 amino acid peptide Ala1007-Phe1026 of Hap (Haemophilus influenzae, UniProt P45387).
T3 construct: a 20 amino acid peptide corresponding to residues Ala1007-Phe1026 of Hap was synthesized; made in house; host or cells: chemical synthesis (f-moc), Protein Chemistry Laboratory at Tufts University
Put plainly: Lactoferrin cleavage of synthetic Hap peptide, mass spectrometry. It is filed as biochemical. From the text:
Next, a 20 amino acid peptide corresponding to residues Ala1007-Phe1026 of Hap was synthesized and subjected to cleavage by milk lactoferrin.

Test [5] has as its target H. influenzae IgA1 protease precursor (Haemophilus influenzae, UniProt P44969, S288V).
Method: The Rd strain was grown in brain heart-infusion broth supplemented with hemin (10 μg/ml) and nicotinamide adenine dinucleotide (2 μg/ml) to mid-log phase, and then harvested by centrifugation.
All samples were collected in sterile beakers; within 6 hours of collection they were centrifuged at 10,000×g for 20 min at 4 C to remove lipids and cells. The resulting whey was stored at −70 C and was prepared for use by thawing slowly, without further modifications. 2×10^9 H. influenzae cells were resuspended in 1 ml of the unmodified human milk whey and incubated at 37 C with gentle mixing. Samples were removed at intervals between 2 minutes and 1 hour. Whole cells and supernatants were examined by Western immunoblot using antisera directed against all domains of the preprotein.
Mid-log phase Rd3-13 bacteria were incubated in milk whey, and aliquots were removed at the times shown.
The antiserum used was anti-Rd3-13, which reacts with IgAp, IgAa, and IgAb.
Test [6] deals with peptide fragments of IgA1 protease (Haemophilus influenzae, UniProt P44969). The following applies: 60 amino acid peptide ending at Arg1397; similar with the 80, 40 and 20 amino acid peptides.
peptide fragments of IgA1 protease, sequence (P44969 1338-1397): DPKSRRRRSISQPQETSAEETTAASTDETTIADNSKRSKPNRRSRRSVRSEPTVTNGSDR
Method: To further define the site of cleavage of the IgA1 protease precursor protein, N-Iga was resolved on an SDS-PAGE gel, then stained with Coomassie blue and excised. The excised band was subjected to Lys-C digestion, and mass spectrometry was performed. […] Subsequently, these peptides were treated with lactoferrin and then examined the reaction mixtures by mass spectrometry.
Digests involving lactoferrin and synthetic peptides were extracted twice with 50 μL acetonitrile/2% TFA and then dried and resuspended in matrix solution for analysis by MALDI mass spectrometry.

Residue numbers refer to the chain shown, from its start. Read-outs that look alike come from different tables or passages of the source.

H. influenzae IgA1 protease precursor, sequence (P44969 26-1694 S288V): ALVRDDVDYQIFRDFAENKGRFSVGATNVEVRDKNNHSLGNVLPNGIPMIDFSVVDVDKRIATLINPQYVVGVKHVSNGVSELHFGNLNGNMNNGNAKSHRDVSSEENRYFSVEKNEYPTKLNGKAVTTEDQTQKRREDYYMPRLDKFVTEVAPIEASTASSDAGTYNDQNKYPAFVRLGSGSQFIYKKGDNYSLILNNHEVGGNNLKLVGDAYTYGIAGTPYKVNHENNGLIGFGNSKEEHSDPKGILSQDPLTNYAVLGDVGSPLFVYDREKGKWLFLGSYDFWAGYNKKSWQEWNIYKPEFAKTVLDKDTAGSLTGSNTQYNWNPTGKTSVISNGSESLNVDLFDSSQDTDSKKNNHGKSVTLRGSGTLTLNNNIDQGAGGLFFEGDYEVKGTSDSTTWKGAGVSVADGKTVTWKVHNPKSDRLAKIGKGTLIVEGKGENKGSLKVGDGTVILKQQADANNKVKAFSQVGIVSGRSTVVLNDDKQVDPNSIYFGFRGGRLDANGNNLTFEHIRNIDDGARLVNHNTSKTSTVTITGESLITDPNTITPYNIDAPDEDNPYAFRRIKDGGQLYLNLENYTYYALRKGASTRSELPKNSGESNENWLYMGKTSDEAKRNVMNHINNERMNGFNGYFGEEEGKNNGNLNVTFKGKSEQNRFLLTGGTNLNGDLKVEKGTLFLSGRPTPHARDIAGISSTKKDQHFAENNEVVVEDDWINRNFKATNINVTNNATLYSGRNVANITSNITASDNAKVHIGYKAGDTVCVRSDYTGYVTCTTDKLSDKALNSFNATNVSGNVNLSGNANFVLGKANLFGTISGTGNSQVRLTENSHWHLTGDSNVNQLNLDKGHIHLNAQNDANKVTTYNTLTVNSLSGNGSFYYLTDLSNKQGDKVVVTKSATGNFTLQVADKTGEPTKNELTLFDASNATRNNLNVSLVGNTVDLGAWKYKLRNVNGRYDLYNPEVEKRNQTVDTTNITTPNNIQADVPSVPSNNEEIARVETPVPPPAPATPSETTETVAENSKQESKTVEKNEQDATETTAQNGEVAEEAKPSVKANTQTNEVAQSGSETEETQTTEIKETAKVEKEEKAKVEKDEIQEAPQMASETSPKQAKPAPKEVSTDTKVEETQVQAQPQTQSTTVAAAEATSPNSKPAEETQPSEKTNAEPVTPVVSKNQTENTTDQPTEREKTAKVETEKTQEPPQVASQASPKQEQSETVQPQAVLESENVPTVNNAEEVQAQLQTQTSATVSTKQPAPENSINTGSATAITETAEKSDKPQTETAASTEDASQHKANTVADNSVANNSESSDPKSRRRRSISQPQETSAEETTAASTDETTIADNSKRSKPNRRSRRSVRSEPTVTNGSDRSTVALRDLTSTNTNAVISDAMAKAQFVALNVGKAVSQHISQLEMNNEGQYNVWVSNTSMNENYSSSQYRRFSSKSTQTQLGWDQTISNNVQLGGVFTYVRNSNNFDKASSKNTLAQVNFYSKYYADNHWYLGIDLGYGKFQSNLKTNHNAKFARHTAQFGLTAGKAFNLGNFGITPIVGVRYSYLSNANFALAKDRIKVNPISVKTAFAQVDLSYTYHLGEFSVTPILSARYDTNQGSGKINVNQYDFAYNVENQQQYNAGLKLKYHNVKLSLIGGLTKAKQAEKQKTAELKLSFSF

B1: human milk lactoferrin: lactoferrin purified from human milk whey using anion exchange and molecular sieve chromatography (protein, UniProt P02788 20-710, looked up)
Lactotransferrin: GRRRSVQWCAVSQPEATKCFQWQRNMRKVRGPPVSCIKRDSPIQCIQAIAENRADAVTLDGGFIYEAGLAPYKLRPVAAEVYGTERQPRTHYYAVAVVKKGGSFQLNELQGLKSCHTGLRRTAGWNVPIGTLRPFLNWTGPPEPIEAAVARFFSASCVPGADKGQFPNLCRLCAGTGENKCAFSSQEPYFSYSGAFKCLRDGAGDVAFIRESTVFEDLSDEAERDEYELLCPDNTRKPVDKFKDCHLARVPSHAVVARSVNGKEDAIWNLLRQAQEKFGKDKSPKFQLFGSPSGQKDLLFKDSAIGFSRVPPRIDSGLYLGSGYFTAIQNLRKSEEEVAARRARVVWCAVGEQELRKCNQWSGLSEGSVTCSSASTTEDCIALVLKGEADAMSLDGGYVYTAGKCGLVPVLAENYKSQQSSDPDPNCVDRPVEGYLAVAVVRRSDTSLTWNSVKGKKSCHTAVDRTAGWNIPMGLLFNQTGSCKFDEYFSQSCAPGSDPRSNLCALCIGDEQGENKCVPNSNERYYGYTGAFRCLAENAGDVAFVKDVTVLQNTDGNNNEAWAKDLKLADFALLCLDGKRKPVTEARSCHLAMAPNHAVVSRMDKVERLKQVLLHQQAKFGRNGSDCPDKFCLFQSETKNLLFNDNTECLARLHGKTTYEKYLGPQYVAGITNLKKCSTSPLLEACEFLRK
Consider B1, for which the “effect on Hap” value in test [1] is on record as “resulted in proteolysis, rather than extraction of Hap”. For the same molecule, the “effect on Hap preprotein” value in test [2] is “loss of the Hap preprotein and generation of a Hap C-terminal fragment”. In test [3], the “proteolysis of Hap” value is “proteolysis detectable but incomplete”. Besides, the “cleavage site in Hap peptide” value in test [4] is “cleavage between Arg1019 and Arg1020 and between Arg1020 and Ala1021”. The “removal of IgA protease precursor” value in test [5] (Rd3-13, 30 min. incubation, bacterial cell pellet) is “small amount of precursor protein remaining”; in test [5] (Rd3-13, after 15 minutes) it was “a large amount of precursor has been proteolytically removed”. The “cleavage site in IgA1 protease peptides” value in test [6] is “cleavage between Arg1382 and Arg1383 and between Arg1383 and Ser1384”.
